Laboratory results: patent US20070254316A1 (Johns Hopkins, published 2007)
Ends that are not written are not given here.

Assays:
[1] = target: T1, xPSM (extracellular portion of human PSMA, Tag-xPSM digested with enterokinase, no affinity tags) (human, UniProt Q04609 44-750); assay: competition: 380 nM soluble PSMA (xPSM) against LNCaP cells for R5-XC1 phage, 500 nM BSA as control
T1 construct: extracellular domain; also called purified xPSM; soluble xPSM protein
Procedure: FIG. 7 depicts the specific blocking of LNCaP phage binding by soluble xPSM protein. 10¹⁰ R5-XC1 phage or the round one phage pool were allowed to bind LNCaP cells in the presence of 380 nM PSMA or 500 nM BSA.
(§1) Cell monolayers were washed several times in PBS, and finally incubated five minutes in PBS at 37° C. Cells were knocked free, pelleted, and suspended in RPMI 1640+1% FBS at a concentration of 10⁶ cells per milliliter. 10⁸ PFU from each clone were incubated with 100 μl of cells at 37° C. for 20 minutes while rotating. For competitive inhibition, purified xPSM or BSA were added to the cells along with phage, and a larger concentration of 10¹⁰ PFU was applied. The cells were then centrifuged through 200 μl of 9:1 dibutyl phthalate:cyclohexane, previously described as BRASIL portioning (Giordano, R. J. et al. (2001) Nat. Med. 7:1249-1253, incorporated herein by reference). The tube was then snap frozen in liquid nitrogen to isolate the cell pellet. The cell pellets were then resuspended in 200 μl of log phage ER2738 cells and phage allowed to infect 1 hour at room temperature. A small aliquot was taken to determine the number of phage bound by dilution titer.

PSMA on LNCaP cells = target: T2, PSMA on LNCaP cells (human, UniProt Q04609 1-750); assay: phage binding to LNCaP cells, 10^8 PFU, BRASIL partitioning and titer
T2 construct: whole, on cells; Target is whole LNCaP cells; also called PSMA expressing LNCaP cells
T2 sequence (Q04609 whole entry): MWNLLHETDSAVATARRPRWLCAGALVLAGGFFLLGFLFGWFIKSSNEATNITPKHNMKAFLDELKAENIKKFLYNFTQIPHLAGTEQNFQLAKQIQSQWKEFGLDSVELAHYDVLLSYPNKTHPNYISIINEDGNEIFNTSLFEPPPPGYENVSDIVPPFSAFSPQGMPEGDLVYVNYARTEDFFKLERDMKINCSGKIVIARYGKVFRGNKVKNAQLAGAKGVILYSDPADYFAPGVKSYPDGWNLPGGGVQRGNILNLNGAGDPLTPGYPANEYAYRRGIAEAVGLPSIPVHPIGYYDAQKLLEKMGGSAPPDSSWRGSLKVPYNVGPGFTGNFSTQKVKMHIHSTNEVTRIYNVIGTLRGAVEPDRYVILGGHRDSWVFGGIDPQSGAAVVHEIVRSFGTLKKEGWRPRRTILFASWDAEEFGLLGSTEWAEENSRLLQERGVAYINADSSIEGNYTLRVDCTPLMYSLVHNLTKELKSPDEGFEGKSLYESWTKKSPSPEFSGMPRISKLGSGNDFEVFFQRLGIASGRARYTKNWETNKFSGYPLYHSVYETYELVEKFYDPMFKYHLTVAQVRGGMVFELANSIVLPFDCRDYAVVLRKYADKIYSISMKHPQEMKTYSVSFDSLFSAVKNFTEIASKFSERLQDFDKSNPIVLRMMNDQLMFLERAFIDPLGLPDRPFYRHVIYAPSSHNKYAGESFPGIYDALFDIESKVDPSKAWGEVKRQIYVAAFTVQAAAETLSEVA
Procedure: FIG. 6 depicts the binding of individual phage clones to PSMA expressing LNCaP cells. 1.3×10⁵ harvested LNCaP cells were incubated with 10⁸ PFU of each individual phage for 20 minutes. Cell-bound phage were isolated by BRASIL partitioning and titered. Phage clones contained peptide sequences as follows: R5-C6: SEQ ID NO:2; R4-C9: SEQ ID NO:5; R5-XC1: SEQ ID NO:1; R3-A4: SEQ ID NO:95.
as §1

[2] = target: T3, Tag-xPSM fusion target protein (human, UniProt Q04609 44-750); assay: phage ELISA, Tag-xPSM immobilised on microtiter plates, 10^10 PFU, absorbance at 410 nm
T3 construct: extracellular domain; they are put first here only as a guess from the type II topology; Made in Sf-9 cells; also called PSMA fusion protein
T3 sequence (Q04609 44-750): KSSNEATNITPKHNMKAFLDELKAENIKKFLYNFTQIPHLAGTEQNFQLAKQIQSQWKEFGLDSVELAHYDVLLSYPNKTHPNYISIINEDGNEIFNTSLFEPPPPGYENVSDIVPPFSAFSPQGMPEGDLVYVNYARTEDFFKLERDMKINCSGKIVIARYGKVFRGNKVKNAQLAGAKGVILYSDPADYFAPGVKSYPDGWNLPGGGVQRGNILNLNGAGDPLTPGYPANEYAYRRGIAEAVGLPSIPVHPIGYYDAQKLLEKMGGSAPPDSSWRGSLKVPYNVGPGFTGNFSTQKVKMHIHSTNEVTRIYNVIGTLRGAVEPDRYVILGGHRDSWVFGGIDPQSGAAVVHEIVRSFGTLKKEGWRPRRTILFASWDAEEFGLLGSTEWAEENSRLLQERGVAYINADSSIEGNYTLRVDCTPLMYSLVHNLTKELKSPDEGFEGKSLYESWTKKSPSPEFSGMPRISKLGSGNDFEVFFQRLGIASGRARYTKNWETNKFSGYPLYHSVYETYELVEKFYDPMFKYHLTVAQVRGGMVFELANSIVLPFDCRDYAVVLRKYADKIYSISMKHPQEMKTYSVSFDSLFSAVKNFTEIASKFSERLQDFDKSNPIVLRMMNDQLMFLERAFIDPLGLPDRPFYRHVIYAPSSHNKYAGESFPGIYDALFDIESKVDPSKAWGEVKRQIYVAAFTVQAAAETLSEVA
Excerpt: (§2) FIG. 5 depicts the binding of selected phage clones to purified extracellular PSMA. Tag-xPSM was immobilized on microtiter plates and targeted for binding with 10¹⁰ PFU of each individual phage. Bound phages were quantified by ELISA absorbance at 410 nm. R4-C9, R5-XC1, and R3-A4 bound with the following significance compared to insertless phage: p-value=0.005, 0.009, and 0.0001 respectively). Phage clones contained peptide sequences as follows: R5-C6: SEQ ID NO:2; R4-C9: SEQ ID NO:5; R5-XC1: SEQ ID NO:1; R3-A4: SEQ ID NO:95.
(§3) Target proteins were immobilized on 96 well tissue culture plates by incubation for 1-2 hours at room temperature or overnight at four degrees Celsius. Both phage and protein coated plate were blocked for 30 minutes with RPMI 1640+1% Bovine Serum Albumin (BSA) at room temperature. Phage were incubated with target in RPMI 1640+1% BSA for 1 hour at room temperature, wells were washed five times in PBS+0.05% Tween-20, and wells were incubated with 1:5000 HRP/anti-M13 monoclonal antibody (in PBS) for 1 hour. Wells were again washed five times in PBS+0.05% Tween-20, and signal detected by incubation in 1×ABTS Stock Solution (100 mg ABTS in 450 ml of 0.05 M Citric Acid, pH 4.0) and absorbance reading at 410 nm. […] Significance was calculated by two-tailed, two-sample equal variance test.

[3] = target: T1, xPSM (extracellular portion of human …); assay: phage ELISA on xPSM
[4] = target: T3, Tag-xPSM fusion target protein; assay: phage ELISA; R3-A4 stands only in FIG. 5, where Tag-xPSM was immobilised
Excerpt: as §2, §3

T1 sequence (Q04609 44-750): as above

Binder	binding result (PSMA on LNCaP cells)	binding result [3]	also measured
CQKHHNYLC (not fully specified (bridges); cysteine pairing not given here; also: displayed on M13 phage pIII coat protein, Disulfide-constrained heptapeptide flanked by cysteines, tested as whole phage; not shown: pIII coat protein of M13 filamentous bacteriophage (New England Biolabs CX7C library); junction between peptide and pIII) [R5-XC1 phage (M13 phage displaying CQKHHNYLC)]	binds	–	binding result [1]: binds; binding result [2]: binds
CTITSKRTC (not fully specified (bridges); cysteine pairing not given here; also: displayed on M13 phage pIII coat protein, Disulfide-constrained heptapeptide flanked by cysteines, tested as whole phage; not shown: pIII coat protein of M13 filamentous bacteriophage (New England Biolabs CX7C library); junction between peptide and pIII) [R5-C6 phage (M13 phage displaying CTITSKRTC)]	binds	binds	–
CFPQSSARC (not fully specified (bridges); cysteine pairing not given here; also: displayed on M13 phage pIII coat protein, Disulfide-constrained heptapeptide flanked by cysteines, tested as whole phage; not shown: pIII coat protein of M13 filamentous bacteriophage (New England Biolabs CX7C library); junction between peptide and pIII) [R3-A4 phage (M13 phage displaying CFPQSSARC)]	binds	–	binding result [4]: binds
CQVRHSAQC (not fully specified (bridges); cysteine pairing not given here; also: displayed on M13 phage pIII coat protein, Tested as whole phage; not shown: pIII coat protein of M13 filamentous bacteriophage (New England Biolabs CX7C library); junction between peptide and pIII) [SEQ ID NO 106 phage (M13 phage displaying CQVRHSAQC)]	–	binds	–
CPSVNTKQC (not fully specified (bridges); cysteine pairing not given here; also: displayed on M13 phage pIII coat protein, Tested as whole phage; also called R5-C11; not shown: pIII coat protein of M13 filamentous bacteriophage (New England Biolabs CX7C library); junction between peptide and pIII) [SEQ ID NO 9 phage (M13 phage displaying CPSVNTKQC)]	–	binds	–
CTPQSSDRC (not fully specified (bridges); cysteine pairing not given here; also: displayed on M13 phage pIII coat protein, Tested as whole phage; not shown: pIII coat protein of M13 filamentous bacteriophage (New England Biolabs CX7C library); junction between peptide and pIII) [SEQ ID NO 107 phage (M13 phage displaying CTPQSSDRC)]	–	binds	–
CLSSNSSLC (not fully specified (bridges); cysteine pairing not given here; also: displayed on M13 phage pIII coat protein, Tested as whole phage; also called R3-C1; not shown: pIII coat protein of M13 filamentous bacteriophage (New England Biolabs CX7C library); junction between peptide and pIII) [SEQ ID NO 28 phage (M13 phage displaying CLSSNSSLC)]	–	binds	–
